Assay results as given in publication PMC9399999 (Nature Communications, 2022).

Molecular target: prototypic SARS-CoV-2 RBD (residues 319-541) (SARS-CoV-2, prototype (GISAID …, UniProt P0DTC2))
Test: SPR
Conditions: both partners purified

B1: S304 antibody (IgG1) (antibody, V domains shown)
VH: EVQLVESGGGLVQPGGSLRLSCAASGFTFSSYDMHWVRQTTGKGLEWVSTIGTAGDTYYPDSVKGRFTISREDAKNSLYLQMNSLRAGDTAVYYCARGDSSGYYYYFDYWGQGTLLTVSS
VL: DIQMTQSPSSLSAAVGDRVTITCRASQSIGSYLNWYQQKPGKAPKLLIYAASSLQSGVPSRFSGSGSGTDFTLTISSLQPEDFAIYYCQQSYVSPTYTFGPGTKVDIK
notes: IgG1
Binder B1 has a Kd of 5.61 nM.
